B1: Bacillus stearothermophilus primase DnaG (native) (enzyme, B. stearothermophilus, UniProt Q9X4D0 1-597, looked up)
chain: MGHRIPEETIEAIRRGVDIVDVIGEYVQLKRQGRNYFGLCPFHGEKTPSFSVSPEKQIFHCFGCGAGGNAFTFLMDIEGIPFVEAAKRLAAKAGVDLSVYELDVRGRDDGQTDEAKAMTEAHALLKRFYHHLLVHTKEGQAALDYLQARGWTKETIDRFEIGYAPDAPDAAAKLLESHSFSLPVMEKAGLLTKKEDGRYVGRFRNRIMFPIHDHRGETVGFSGRLLGEGHPKYVNSPETPVFRKGAILYHFHAARVPIRKRQEALLVEGFADVISAAQAGIDYAIATMGTSLTEEQARILRPCDTITICYDGDRAGIEAAWAAAEQLSALGCRVKVASLPNGLDPDEYIRVYGGERFAGEAGCRRPLVAFKMAYLRRGKNLQHEGERLRYIDEALREIGKLSSPVEQDYYLRQLAEEFSLSLSALHEQLSRSQRERTKPREAPDGETARPMLAKKLLPAFQNAERLLLAHMMRSRDVALVVQERIGGRFNIEEHRALAAYIYAFYEEGHEADPGALISRIPGELQPLASDVSLLLIADDVSEQELEDYIRHVLNRPKWLMLKVKEQEKTEAERRKDFLTAARIAKEMIEMKKMLSSS
B2: Bacillus stearothermophilus replicative helicase DnaB (native) (enzyme, B. stearothermophilus)
chain: MSELFSERIPPQSIEAEQAVLGAVFLDPAALVPASEILIPEDFYRAAHQKIFHAMLRVADRGEPVDLVTVTAELAASEQLEEIGGVSYLSELADAVPTAANVEYYARIVEEKSVLRRLIRTATSIAQDGYTREDEIDVLLDEADRKIMEVSQRKHSGAFKNIKDILVQTYDNIEMLHNRDGEITGIPTGFTELDRMTSGFQRSDLIIVAARPSVGKTAFALNIAQNVATKTNENVAIFSLEMSAQQLVMRMLCAEGNINAQNLRTGKLTPEDWGKLTMAMGSLSNAGIYIDDTPSIRVSDIRAKCRRLKQESGLGMIVIDYLQLIQGSGRSKENRQQEVSEISRSLKALARELEVPVIALSQLSRSVEQRQDKRPMMSDIRESGSIEQDADIVAFLYRDDYYNKDSENKNIIEIIIAKQRNGPVGTVQLAFIKEYNKFVNLERRFDEAQIPPGA

Assays:
[1] = molecular target: Bacillus stearothermophilus replicative helicase DnaB (native) (B. stearothermophilus) (UniProt Q9X4C9); assay: ITC
[2] = molecular target: B2; assay: ITC
[3] = molecular target: T1, B. stearothermophilus primase DnaG R555A (B. stearothermophilus, UniProt Q9X4D0 1-597, R555A); assay: SEC
T1 sequence (looked up): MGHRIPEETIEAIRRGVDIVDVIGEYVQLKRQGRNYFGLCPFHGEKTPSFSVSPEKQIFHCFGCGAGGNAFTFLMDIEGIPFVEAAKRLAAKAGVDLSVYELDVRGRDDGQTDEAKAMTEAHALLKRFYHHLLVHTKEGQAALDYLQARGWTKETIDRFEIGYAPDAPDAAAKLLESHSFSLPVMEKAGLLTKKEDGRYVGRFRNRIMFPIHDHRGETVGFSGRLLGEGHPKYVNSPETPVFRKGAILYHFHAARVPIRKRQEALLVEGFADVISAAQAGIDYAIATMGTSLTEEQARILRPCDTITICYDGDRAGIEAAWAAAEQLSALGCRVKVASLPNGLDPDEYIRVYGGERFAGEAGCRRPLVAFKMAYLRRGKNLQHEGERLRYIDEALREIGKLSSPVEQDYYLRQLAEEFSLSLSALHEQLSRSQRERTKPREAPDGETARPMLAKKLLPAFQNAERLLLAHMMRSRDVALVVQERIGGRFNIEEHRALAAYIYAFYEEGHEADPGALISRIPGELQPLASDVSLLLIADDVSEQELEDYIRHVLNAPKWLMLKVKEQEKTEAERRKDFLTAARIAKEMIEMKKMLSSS

[4] = molecular target: T2, B. stearothermophilus primase DnaG R495A (B. stearothermophilus, UniProt Q9X4D0 1-597, R495A); assay: SEC
T2 sequence (looked up): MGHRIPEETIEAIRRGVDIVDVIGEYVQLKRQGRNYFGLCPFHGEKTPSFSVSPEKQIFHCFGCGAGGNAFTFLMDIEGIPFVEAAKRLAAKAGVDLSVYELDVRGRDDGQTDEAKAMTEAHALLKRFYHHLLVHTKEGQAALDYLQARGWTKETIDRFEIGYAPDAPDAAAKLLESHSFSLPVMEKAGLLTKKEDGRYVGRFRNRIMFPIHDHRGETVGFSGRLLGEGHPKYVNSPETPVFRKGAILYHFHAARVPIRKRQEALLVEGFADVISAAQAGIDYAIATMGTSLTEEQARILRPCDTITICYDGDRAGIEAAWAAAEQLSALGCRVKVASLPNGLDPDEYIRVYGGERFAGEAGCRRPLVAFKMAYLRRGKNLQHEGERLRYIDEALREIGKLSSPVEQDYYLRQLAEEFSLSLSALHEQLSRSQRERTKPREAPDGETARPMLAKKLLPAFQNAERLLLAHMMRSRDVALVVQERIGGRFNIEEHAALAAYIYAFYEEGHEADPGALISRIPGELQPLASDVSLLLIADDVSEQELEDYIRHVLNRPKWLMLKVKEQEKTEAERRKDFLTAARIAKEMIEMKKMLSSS

[5] = molecular target: B1; assay: ITC
[6] = molecular target: T3, B. stearothermophilus primase DnaG E464G (B. stearothermophilus, UniProt Q9X4D0 1-597, E464G); assay: ITC
T3 sequence (looked up): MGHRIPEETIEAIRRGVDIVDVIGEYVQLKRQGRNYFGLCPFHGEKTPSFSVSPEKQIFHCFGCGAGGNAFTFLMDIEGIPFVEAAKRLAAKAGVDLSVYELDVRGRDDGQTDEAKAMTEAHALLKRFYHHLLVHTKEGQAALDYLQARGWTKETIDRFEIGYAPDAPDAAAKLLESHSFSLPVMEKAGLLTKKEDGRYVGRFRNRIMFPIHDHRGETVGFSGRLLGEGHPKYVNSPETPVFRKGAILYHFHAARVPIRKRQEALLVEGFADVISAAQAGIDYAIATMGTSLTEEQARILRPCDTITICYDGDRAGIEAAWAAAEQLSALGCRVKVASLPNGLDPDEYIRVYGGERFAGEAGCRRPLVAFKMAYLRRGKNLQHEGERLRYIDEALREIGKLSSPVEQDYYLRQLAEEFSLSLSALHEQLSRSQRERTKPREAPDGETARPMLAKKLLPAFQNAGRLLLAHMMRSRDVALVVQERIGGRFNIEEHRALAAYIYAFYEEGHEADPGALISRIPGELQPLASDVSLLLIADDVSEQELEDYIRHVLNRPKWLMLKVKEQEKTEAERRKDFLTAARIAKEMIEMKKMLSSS

[7] = molecular target: T4, B. stearothermophilus primase DnaG H494A (B. stearothermophilus, UniProt Q9X4D0 1-597, H494A); assay: ITC
T4 sequence (looked up): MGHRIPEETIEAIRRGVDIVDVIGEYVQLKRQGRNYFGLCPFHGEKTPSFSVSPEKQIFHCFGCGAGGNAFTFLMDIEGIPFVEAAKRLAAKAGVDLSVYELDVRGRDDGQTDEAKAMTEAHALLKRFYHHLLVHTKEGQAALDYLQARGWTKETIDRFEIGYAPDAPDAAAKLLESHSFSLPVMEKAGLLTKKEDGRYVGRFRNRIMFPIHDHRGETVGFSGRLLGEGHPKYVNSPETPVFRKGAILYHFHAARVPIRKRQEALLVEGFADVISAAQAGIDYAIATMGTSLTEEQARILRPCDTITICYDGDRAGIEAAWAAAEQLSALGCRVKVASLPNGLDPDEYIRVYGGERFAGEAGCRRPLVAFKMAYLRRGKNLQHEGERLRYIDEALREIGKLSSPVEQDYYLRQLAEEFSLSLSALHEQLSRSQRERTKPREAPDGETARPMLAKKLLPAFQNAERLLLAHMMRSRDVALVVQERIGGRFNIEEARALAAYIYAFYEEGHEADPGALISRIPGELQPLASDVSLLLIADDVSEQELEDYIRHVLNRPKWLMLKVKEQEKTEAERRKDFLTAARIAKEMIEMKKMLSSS

Molecule “B. stearothermophilus primase DnaG Y548A (from UniProt Q9X4D0 1-597) (enzyme)” has a Kd [1] of 83.3 nM and a stoichiometry N [1] of 0.509.

With B1 the dH [2] was 17.8 kcal/mol and the “stoichiometry N” value [2] was 0.287.

In the case of B2, the binding result [3] is reported as “binds”, the binding result [4] is reported as “binds” and the Ka [5] is reported as 1.42e+08 M⁻¹. It also gave a Kd [5] of 7.04 nM, a Ka [6] of 1.18e+08 M⁻¹ and a Kd [6] of 8.5 nM. The Ka [7] was 1.18e+08 M⁻¹ and the Kd [7] was 8.5 nM.

Reference: publication PMC3035050 (Molecular microbiology, 2008)
